Measurements published in US20230340055A1 (published 2023).
Like-named read-outs stand apart in the source and are kept apart here.

Legend:
[1] = molecular target: T1, Human IL-2 Receptor beta, Fc-Tag (Symansis, New Zealand) (human, UniProt P14784 27-240); experiment: SPR (Biacore T200), IL-2Rβ-Fc captured on anti-human IgG (Fc) CM5 chip, IL-2 as analyte, multi-cycle kinetics, 1:1 kinetic fit, 25 C
T1 construct: extracellular domain; Bought reagent; also called IL-2Rβ; IL-2Rβ-Fc; not shown: Fc-Tag (captured by anti-human IgG (Fc) antibody)
T1 sequence (looked up): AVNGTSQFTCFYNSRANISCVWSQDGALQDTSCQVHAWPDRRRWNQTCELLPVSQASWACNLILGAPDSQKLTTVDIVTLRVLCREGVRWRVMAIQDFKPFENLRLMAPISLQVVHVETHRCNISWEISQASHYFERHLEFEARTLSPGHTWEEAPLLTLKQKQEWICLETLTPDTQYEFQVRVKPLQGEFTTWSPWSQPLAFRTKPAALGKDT
Procedure: (§1) For the determination of binding kinetics to IL-2Rβ the following chip preparation was used: Human IL-2 Receptor beta, Fc-Tag (Symansis, New Zealand) was diluted in HBS-EP running buffer (GE Healthcare, 10 mM HEPES, 150 mM NaCl, 3 mM EDTA, 0.05% Surfactant P20, pH 7.4) to around 0.80 µg/mL and immobilized at a flow rate of 50 µL/min for 60 s to achieve 140 - 180 response units (RU).
(§2) (50 µL/min flow rate, 60 s contact time, 300 s dissociation time). Double referenced data (subtracted data from the reference flow cell and the buffer only samples) was analysed via a kinetic fit (1:1 binding model) to determine KD, kₐ and kd. Regeneration after each cycle was performed with 3 M MgCl₂.

[2] = molecular target: T2, IL-2Rβγ (dimeric intermediate affinity IL-2 receptor), human, on cells (human, UniProt P14784 27-551; P31785 23-369); experiment: cell-based or functional assay
T2 sequence (looked up) 1: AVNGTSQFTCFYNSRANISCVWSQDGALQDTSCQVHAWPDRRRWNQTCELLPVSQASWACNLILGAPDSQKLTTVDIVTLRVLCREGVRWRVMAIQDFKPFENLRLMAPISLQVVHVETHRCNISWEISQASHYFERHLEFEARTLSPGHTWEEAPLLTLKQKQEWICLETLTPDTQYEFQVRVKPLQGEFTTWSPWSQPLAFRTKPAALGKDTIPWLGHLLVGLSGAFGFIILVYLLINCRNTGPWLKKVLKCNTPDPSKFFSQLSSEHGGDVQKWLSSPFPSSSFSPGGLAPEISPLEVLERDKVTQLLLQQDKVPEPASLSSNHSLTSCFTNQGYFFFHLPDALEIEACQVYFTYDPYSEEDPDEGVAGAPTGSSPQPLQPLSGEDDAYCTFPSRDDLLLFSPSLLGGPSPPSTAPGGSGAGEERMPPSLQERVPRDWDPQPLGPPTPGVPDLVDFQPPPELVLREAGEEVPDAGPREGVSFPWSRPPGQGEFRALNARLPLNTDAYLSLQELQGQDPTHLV
T2 sequence (looked up) 2: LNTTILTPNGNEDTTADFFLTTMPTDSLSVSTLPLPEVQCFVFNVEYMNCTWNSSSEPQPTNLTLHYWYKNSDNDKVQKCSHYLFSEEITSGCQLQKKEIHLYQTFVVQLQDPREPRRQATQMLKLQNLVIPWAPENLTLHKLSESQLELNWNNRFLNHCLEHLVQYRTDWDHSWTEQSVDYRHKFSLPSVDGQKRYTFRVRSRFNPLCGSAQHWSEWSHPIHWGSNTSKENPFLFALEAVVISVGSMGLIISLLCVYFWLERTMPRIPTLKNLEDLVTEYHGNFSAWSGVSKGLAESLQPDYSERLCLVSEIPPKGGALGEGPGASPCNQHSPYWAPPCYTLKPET

[3] = molecular target: T3, IL-2Rαβγ (trimeric high-affinity IL-2 receptor), human, on cells (human, UniProt P01589 22-272; P14784 27-551; P31785 23-369); experiment: cell-based or functional assay
T3 sequence (looked up) 1: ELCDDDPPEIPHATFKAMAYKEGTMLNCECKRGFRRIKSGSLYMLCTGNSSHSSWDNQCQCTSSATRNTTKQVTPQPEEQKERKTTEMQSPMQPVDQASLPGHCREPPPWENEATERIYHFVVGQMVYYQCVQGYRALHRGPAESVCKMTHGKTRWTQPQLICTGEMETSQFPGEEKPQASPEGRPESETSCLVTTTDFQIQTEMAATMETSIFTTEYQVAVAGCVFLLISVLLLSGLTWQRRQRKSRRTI
T3 sequence (looked up) 2: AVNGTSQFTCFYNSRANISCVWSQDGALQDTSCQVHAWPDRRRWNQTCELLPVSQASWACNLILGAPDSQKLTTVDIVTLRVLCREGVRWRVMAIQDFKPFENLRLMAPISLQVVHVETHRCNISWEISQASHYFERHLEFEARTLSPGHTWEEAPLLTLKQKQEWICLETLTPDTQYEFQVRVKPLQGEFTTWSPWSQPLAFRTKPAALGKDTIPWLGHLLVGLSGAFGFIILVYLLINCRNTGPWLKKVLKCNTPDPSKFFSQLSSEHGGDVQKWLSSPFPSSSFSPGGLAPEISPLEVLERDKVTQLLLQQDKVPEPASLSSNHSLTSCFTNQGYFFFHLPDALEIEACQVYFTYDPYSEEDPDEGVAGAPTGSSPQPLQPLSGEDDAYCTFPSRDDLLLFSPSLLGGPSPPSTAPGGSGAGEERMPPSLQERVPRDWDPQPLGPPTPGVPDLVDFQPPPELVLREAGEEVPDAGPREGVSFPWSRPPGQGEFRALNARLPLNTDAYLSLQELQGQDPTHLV
T3 sequence (looked up) 3: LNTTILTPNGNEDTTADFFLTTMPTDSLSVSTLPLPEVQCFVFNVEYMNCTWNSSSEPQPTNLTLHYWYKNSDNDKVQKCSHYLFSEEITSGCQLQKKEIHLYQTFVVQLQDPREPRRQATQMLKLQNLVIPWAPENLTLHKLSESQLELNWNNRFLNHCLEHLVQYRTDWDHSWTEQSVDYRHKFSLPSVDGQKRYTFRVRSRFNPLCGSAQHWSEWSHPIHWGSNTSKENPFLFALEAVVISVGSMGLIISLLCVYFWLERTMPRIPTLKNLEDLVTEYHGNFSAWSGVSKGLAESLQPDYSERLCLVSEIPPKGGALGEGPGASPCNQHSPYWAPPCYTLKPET

[4] = molecular target: T4, Human IL-2 Receptor alpha, Fc-Tag (Symansis, New Zealand) (human, UniProt P01589 22-240); experiment: SPR; KD to IL-2Rα divided by KD to IL-2Rβ of the same compound
T4 construct: extracellular domain; Bought reagent; also called IL-2Rα; IL-2Rα-Fc; not shown: Fc-Tag (captured by anti-human IgG (Fc) antibody)
T4 sequence (looked up): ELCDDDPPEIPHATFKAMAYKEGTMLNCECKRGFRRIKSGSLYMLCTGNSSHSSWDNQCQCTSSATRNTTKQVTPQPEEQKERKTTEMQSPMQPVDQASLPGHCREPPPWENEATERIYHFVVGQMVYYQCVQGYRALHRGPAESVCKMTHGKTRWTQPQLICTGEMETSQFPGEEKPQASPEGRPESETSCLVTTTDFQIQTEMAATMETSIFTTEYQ
Procedure: as §1, with “IL-2Rα” for “IL-2Rβ”, “alpha,” for “beta,”, “approx. 0.67” for “around 0.80”, “80” for “140”, “100” for “180”
as §1, §2

[5] = molecular target: T4, Human IL-2 Receptor alpha, Fc-Tag …; experiment: calculated from the SPR KD values of Example 7; reference protein 5a
Procedure: as §1, with “IL-2Rα” for “IL-2Rβ”, “alpha,” for “beta,”, “approx. 0.67” for “around 0.80”, “80” for “140”, “100” for “180”
as §1, §2

[6] = molecular target: T5, IL-2-Rα/β/γ on the murine CTLL-2 T lymphocyte cell line (murine, UniProt P01590 22-268; P16297 27-539; P34902 23-369); experiment: cell-based or functional assay
T5 sequence (looked up) 1: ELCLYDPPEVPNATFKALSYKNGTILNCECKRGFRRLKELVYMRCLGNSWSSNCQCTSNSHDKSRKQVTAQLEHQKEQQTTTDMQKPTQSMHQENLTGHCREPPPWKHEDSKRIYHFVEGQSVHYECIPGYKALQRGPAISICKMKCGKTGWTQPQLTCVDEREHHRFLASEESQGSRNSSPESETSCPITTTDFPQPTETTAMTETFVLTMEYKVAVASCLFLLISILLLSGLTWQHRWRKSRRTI
T5 sequence (looked up) 2: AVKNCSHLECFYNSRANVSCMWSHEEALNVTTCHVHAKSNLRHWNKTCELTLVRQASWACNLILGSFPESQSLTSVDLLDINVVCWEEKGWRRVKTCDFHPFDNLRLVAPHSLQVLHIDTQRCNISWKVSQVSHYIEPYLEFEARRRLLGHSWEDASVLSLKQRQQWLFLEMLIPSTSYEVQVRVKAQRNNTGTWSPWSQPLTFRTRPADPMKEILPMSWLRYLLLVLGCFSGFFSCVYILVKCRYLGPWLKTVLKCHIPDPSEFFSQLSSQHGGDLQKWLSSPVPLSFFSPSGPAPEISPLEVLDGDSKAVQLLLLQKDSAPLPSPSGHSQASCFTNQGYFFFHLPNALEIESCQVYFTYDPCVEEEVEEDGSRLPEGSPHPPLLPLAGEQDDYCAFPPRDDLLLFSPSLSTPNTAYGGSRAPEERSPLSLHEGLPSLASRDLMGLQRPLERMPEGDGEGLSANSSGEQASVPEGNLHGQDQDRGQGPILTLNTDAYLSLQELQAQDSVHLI
T5 sequence (looked up) 3: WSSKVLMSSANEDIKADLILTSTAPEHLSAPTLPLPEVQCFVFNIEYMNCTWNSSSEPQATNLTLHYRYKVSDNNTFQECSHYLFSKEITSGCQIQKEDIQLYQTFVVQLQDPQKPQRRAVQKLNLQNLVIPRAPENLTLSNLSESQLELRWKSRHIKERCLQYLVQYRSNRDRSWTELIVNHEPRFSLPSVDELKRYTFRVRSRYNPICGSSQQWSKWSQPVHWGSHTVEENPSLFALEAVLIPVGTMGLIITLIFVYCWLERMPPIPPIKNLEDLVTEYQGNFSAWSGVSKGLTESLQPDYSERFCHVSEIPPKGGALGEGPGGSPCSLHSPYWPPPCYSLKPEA

[7] = molecular target: T2, IL-2Rβγ (dimeric intermediate affinity …); experiment: cell-based or functional assay; remark: listed apart in the source
[8] = molecular target: T2, IL-2Rβγ (dimeric intermediate affinity …); experiment: cell-based or functional assay; remark: listed apart in the source
[9] = molecular target: T3, IL-2Rαβγ (trimeric high-affinity IL-2 …); experiment: cell-based or functional assay; remark: listed apart in the source
[10] = molecular target: T2, IL-2Rβγ (dimeric intermediate affinity …); experiment: cell-based or functional assay; remark: listed apart in the source
[11] = molecular target: T3, IL-2Rαβγ (trimeric high-affinity IL-2 …); experiment: cell-based or functional assay; remark: listed apart in the source

B1: protein 1f (ligand)
chain: APTSSSTKKTQLQLEHLLLDLQMILNGINNYKNPKLTFGNSTKFYMPKKATELKHLQCLEEELKPLEEVLNLAQSKNFHLRPRDLISNINVIVLELKGSETTFMCEYADETATIVEFLNRWITFSQSIISTLT
modifications: N-glycosylated at the introduced N-glycosylation site (motif FGNST, peptide LTFGNSTK; heterogeneous glycans); heterogeneous O-glycosylation at the wildtype O-glycosylation site
notes: also called N-glycosylated IL2 (1f)
B1 was tested, and the Kd [1] was 993 nM, the “Ave EC50, pSTAT5 MFI, CD8+ T cells (human whole blood)” value [2] was 54.8 ng/ml and the “Ave EC50, pSTAT5 MFI, NK cells (human whole blood)” value [2] was 7.35 ng/ml. For the same binder, the “Fold reduction in potency vs WT-IL2 (1d), pSTAT5 MFI, CD8+ T cells” value [2] was 2.13 fold, the “Fold reduction in potency vs WT-IL2 (1d), pSTAT5 MFI, NK cells” value [2] was 1.22 fold and the “Ave EC50, pSTAT5 MFI, T regulatory cells (human whole blood)” value [3] was 33.5 ng/ml. The “Fold reduction in potency vs WT-IL2 (1d), pSTAT5 MFI, T regulatory cells” value [3] was 372 fold, the “KD-Ratio (α/β)” value [4] was greater than 4.02 and the “ratio of Ratio protein 1f to Ratio protein 5a (KD to IL-2Rα / KD to IL-2Rβ)” value [5] was greater than 200.

B2: conjugate release mixture 8 (other)
chain: APTSSSTKKTQLQLEHLLLDLQMILNGINNYKNPKLTFGNSTKFYMPKKATELKHLQCLEEELKPLEEVLNLAQSKNFHLRPRDLISNINVIVLELKGSETTFMCEYADETATIVEFLNRWITFSQSIISTLT
modifications: glycosylated as protein 6; residual conjugate 7 in the mixture carries one 40 kDa mPEG-linker on a primary amine of the N-terminus or a lysine side chain
For B2, the “EC50 CTLL-2, STAT5 phosphorylation” value [6] was 1.57 µg/mL, the “Ratio (E50 CTLL-2 cells/EC50 HH cell)” value [6] was 39.5 and the “EC50 HH cells, STAT5 phosphorylation” value [7] was 0.0398 µg/mL.

B3: protein 1a (ligand)
chain: APTSSSTKKTQLQLEHLLLDLQMILNGINNYKNPKLTFGNSTKFYMPKKATELKHLQCLEEELKPLEEVLNLAQSKNFHLRPRDLISNINVIVLELKGSETTFMCEYADETATIVEFLNRWITFSQSIISTLTHHHHHH
modifications: N-glycosylated (at least 90% by SDS-PAGE shift, removed by PNGase F)
In the case of B3, the “Ave EC50, pSTAT5 MFI, CD8+ T cells (human whole blood)” value [8] is reported as 12.6 ng/ml, the “Ave EC50, pSTAT5 MFI, NK cells (human whole blood)” value [8] is reported as 3.07 ng/ml and the “Fold reduction in potency vs WT-IL2 (1d), pSTAT5 MFI, CD8+ T cells” value [8] is reported as 1.44 fold. For the same binder, the “Fold reduction in potency vs WT-IL2 (1d), pSTAT5 MFI, NK cells” value [8] was 1.34 fold, the “Ave EC50, pSTAT5 MFI, T regulatory cells (human whole blood)” value [9] was 7.93 ng/ml and the “Fold reduction in potency vs WT-IL2 (1d), pSTAT5 MFI, T regulatory cells” value [9] was 437 fold. The “Ave EC50, pSTAT5 percent positive, CD8+ T cells (human whole blood)” value [10] was 1.69 ng/ml, the “Ave EC50, pSTAT5 percent positive, NK cells (human whole blood)” value [10] was 0.371 ng/ml and the “Fold reduction in potency vs WT-IL2 (1d), pSTAT5 percent positive, CD8+ T cells” value [10] was 1.58 fold. For the same binder, the “Fold reduction in potency vs WT-IL2 (1d), pSTAT5 percent positive, NK cells” value [10] was 2.01 fold, the “Ave EC50, pSTAT5 percent positive, T regulatory cells (human whole blood)” value [11] was 1.06 ng/ml and the “Fold reduction in potency vs WT-IL2 (1d), pSTAT5 percent positive, T regulatory cells” value [11] was 598 fold.
